The record followed here is IntAct's records for PubMed 21236255.

B1: Zinc-dependent sulfurtransferase SufU (Bacillus subtilis), O32163 (parent)
chain: MSFNANLDTLYRQVIMDHYKNPRNKGVLNDSIVVDMNNPTCGDRIRLTMKLDGDIVEDAKFEGEGCSISMASASMMTQAIKGKDIETALSMSKIFSDMMQGKEYDDSIDLGDIEALQGVSKFPARIKCATLSWKALEKGVAKEEGGN

One assay covers variants of B1. Conditions: with sufs_bacsu sufS.
Regarding C41A, the “effect of a mutation on the interaction” value is “disrupting interaction”.

Variants of B1 are the subject of a further assay. Conditions: with sufs_bacsu sufS. This is another data set of the same source.
With C41A, the “effect of a mutation on the interaction” value is recorded as “increasing interaction”.

Variants of B1 are the subject of the next assay. Conditions: with sufs_bacsu sufS. The source holds these as a separate data set.
As for C66A, the “effect of a mutation on the interaction” value is “disrupting interaction”.

Variants of B1 are the subject of the next assay. Conditions: with sufs_bacsu sufS. This is another data set of the same source.
As to C128A, the “effect of a mutation on the interaction” value was “disrupting interaction”.
